Test results: publication PMC3871816, “The Arabidopsis adaptor protein AP-3µ interacts with the G-protein β subunit AGB1 and is involved in abscisic acid regulation of germination and post-germination development” (Journal of Experimental Botany, 2013)

Target: T1, GST-fused AP-3µ (Arabidopsis thaliana, UniProt F4I562 1-415)
T1 construct: AP-3µ of Arabidopsis thaliana; construction is in Supplementary Method S2, induction and purification in Supplementary Method S3; also called GST-AP-3µ; pGEX-5X-AP-3µ
T1 sequence (looked up): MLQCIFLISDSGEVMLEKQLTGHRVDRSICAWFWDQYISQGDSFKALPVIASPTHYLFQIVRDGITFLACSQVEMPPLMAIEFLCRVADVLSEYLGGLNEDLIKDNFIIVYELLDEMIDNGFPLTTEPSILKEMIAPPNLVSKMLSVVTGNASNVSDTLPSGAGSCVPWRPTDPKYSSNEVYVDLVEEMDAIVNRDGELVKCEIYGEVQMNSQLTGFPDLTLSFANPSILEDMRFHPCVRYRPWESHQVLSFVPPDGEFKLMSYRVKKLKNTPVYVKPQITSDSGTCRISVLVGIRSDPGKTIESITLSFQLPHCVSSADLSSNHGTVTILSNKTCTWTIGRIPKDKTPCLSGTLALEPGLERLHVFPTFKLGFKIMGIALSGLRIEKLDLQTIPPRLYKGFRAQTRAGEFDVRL
Test: pull-down; GST-AP-3µ or GST-AP-3µ^DN bound to Glutathione Sepharose 4 Fast Flow, washed with PBS, incubated with purified His-AGB1 at room temperature for 60 min; eluted with 20 mM reduced glutathione; immunoblot with anti-GST and HisProbe-HRP
Settings: both partners purified

binding result: binds
B1: Polyhistidine-tagged AGB1 (natural protein, Arabidopsis thaliana, UniProt P49177 1-377, looked up)
chain: MSVSELKERHAVATETVNNLRDQLRQRRLQLLDTDVARYSAAQGRTRVSFGATDLVCCRTLQGHTGKVYSLDWTPERNRIVSASQDGRLIVWNALTSQKTHAIKLPCAWVMTCAFSPNGQSVACGGLDSVCSIFSLSSTADKDGTVPVSRMLTGHRGYVSCCQYVPNEDAHLITSSGDQTCILWDVTTGLKTSVFGGEFQSGHTADVLSVSISGSNPNWFISGSCDSTARLWDTRAASRAVRTFHGHEGDVNTVKFFPDGYRFGTGSDDGTCRLYDIRTGHQLQVYQPHGDGENGPVTSIAFSVSGRLLFAGYASNNTCYVWDTLLGEVVLDLGLQQDSHRNRISCLGLSADGSALCTGSWDSNLKIWAFGGHRRVI
notes: AGB1, G-protein β subunit of Arabidopsis thaliana; His-AGG1 is named in the same sentence but in no result; also called His-AGB1; His-tagged AGB1; source: E. coli, purified
